Laboratory results reported in paper PMC3936728.

What was measured:
MepR WT = biological target: T1, MepR WT (Staphylococcus aureus, UniProt Q5Y812 1-139); assay: ITC
T1 sequence: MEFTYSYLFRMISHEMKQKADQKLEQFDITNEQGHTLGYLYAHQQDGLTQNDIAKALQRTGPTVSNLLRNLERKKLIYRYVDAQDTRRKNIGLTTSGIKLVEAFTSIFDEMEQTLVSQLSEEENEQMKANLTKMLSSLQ

MepR (crystallization) = biological target: T2, MepR (crystallization) (Staphylococcus aureus, UniProt Q5Y812 1-139); assay: crystal structure
T2 sequence: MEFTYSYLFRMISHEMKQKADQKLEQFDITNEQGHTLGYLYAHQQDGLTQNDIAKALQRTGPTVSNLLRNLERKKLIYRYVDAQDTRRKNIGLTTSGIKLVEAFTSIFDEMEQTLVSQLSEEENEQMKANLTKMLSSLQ

Binder	binding result (MepR WT)	binding result (MepR (crystallization))
14 bp mepR site (dsDNA) DNA 1: GTTAGACATCTAAC DNA 2: GTTAGATGTCTAAC	no binding	–
24 bp palindromic mepR operator (dsDNA) DNA 1: ATTTAGTTAGATATCTAACTAAAT DNA 2: ATTTAGTTAGATATCTAACTAAAT	–	binds
27 bp mepR, scrambled recognition helix region (dsDNA) DNA 1: TATTTACTATGTGTATCTAGGAAATGG DNA 2: CCATTTCCTAGATACACATAGTAAATA	no binding	–
